# Results taken from patent US20260132200A1 (Regeneron, published 2026).
# Residue numbers refer to the chain shown, from its start.
# T1: human CD3 expressed on cells (Jurkat, a CD3+ human T-cell line; human T cells) (human, UniProt P07766 23-126; P04234 22-100)
# T1 chain 1: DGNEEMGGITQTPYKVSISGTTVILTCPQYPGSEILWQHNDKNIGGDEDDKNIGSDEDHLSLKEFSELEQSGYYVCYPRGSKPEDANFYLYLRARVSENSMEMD
# T1 chain 2: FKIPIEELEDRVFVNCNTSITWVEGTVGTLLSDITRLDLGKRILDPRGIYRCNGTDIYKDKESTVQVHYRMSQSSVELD
# B1: H1H5788P (antibody, V domains shown)
# VH: EVQLVESGGGLVQPGRSLRLSCAASGFTFDDYTMHWVRQAPGKGLEWVSGISWNSGSIGYADSVKGRFTISRDNAKNSLYLQMNSLRAEDTALFYCAKDQSGYGHYYYGMDVWGQGTTVTVSS
# VL: EIVMTQSPATLSVSPGERATLSCRASQSVSSNLAWYQQKPGQAPRLLIYGASTRATDIPARFSGSGSGTEFTLTISSLQSEDFAVYHCQQYNNWPLTFGGGTKVEIK
# B2: H1H5752P (antibody, human IgG1, V domains shown)
# VH: QVQLVESGGGVVQPGRSLRPSCAASGFSFRDYGMHWVRQAPGKGLEWMAHIWYNGKNKYYADSVKGRFTISRDNSKNTLYLQMNSLRPEDTAVYYCARDGVSARGTPFDYWGQGTLVTVSS
# VL: ETTLTQSPAFMSAAPGDKVSISCIASQYIDDDVNWYQQKPGETAIFIIQEASTLVPGISPRFSGSGYGTHFTLTINNIDSEDAAFYFCLQHDNFPYTFGQGTKLEIK
# B3: H1H5755B (antibody, human IgG1, V domains shown)
# VH: EVQLVESGGGVVQPGRSLRLSCAASGFTFSNYGMHWVRQAPGKGLEWVTVILHDGSYKYYADSVKGRFTISRDNSKNTLHLQMNSLRTEDTAVYYCAKGPMFRGVPYNHYYGMDVWGQGTTVTVSS
# VL: DIQMTQSPSSLSASVGDRVTITCRASQGIRNDLGWYQQKPGKAPKRLIYAASSLQSGVSSRFSGSGSGTEFTLTISSLQPEDFATYYCLQHNSYPYTFGQGTKVEIKR
# B4: H1H5757B (antibody, human IgG1, V domains shown)
# VH: B3 VH with N31S, Y57N, K58R, Y60S, H80Y, S85I, T88V, A97T, P100A, F102V
# VL: B3 VL with S53I, S59P, V104L
# B5: H1H5758B (antibody, human IgG1, V domains shown)
# VH: B3 VH with N31S, Y57N, K58R, H80Y, S85I, T88A, A97T, P100A, F102V
# VL: B3 VL with Q3V, S53N, S59P, V104L
# B6: H2M3540N (antibody, mouse IgG2, V domains shown)
# VH: QVHLEESGGGVVQPGRSLRLSCSASGFTFSSYAMHWVRQAPGKGLEWVAVIWYDGTNKYYLDSVKGRFTISRDNSKNTLFLQMNSLRAEDTAVYYCARDRGSIITHWGQGTLVTVSS
# VL: DIQMTQSPSSLSASIGDRVTITCRASQNISSYLNWYQQKPGKAPKLLIYAASSLQSGVPSRFSGSGSGTDFTLTISSLQPEDFATYYCQQTYSTPPITFGQGTRLEIK
# B7: H2M3543N (antibody, mouse IgG2, V domains shown)
# VH: EVQLVESGGGLVQPGRSLRLSCAASGFTFDDYTMHWVRQAPGKGLEWVSDISWNSGSIGYADSVKGRFTVSRDNAKNSLYLQMNSLRGEDTALYYCAKDMSGYAHYGYYGMDVWGQGTTVTVSS
# VL: B6 VL with I15V, N28S, S30R, S31N, A43V, T91S, T94N
# B8: H2M3563N (antibody, mouse IgG2, V domains shown)
# VH: B7 VH with Q3H, A104G, Y108K
# VL: B6 VL with I15V, N28S, S30R, A43V, S76N, E81D, T94N
# B9: H2M2690N (antibody, mouse IgG2, V domains shown)
# VH: B1 VH with N77K, F94Y, Q100N, S122A
# VL: B1 VL with D57G, H87Y, Q90H, N92I
# B10: H2M2777N (antibody, mouse IgG2, V domains shown)
# VH: QVQLVESGGGVVQPGRSLRLSCIASGFTFRSYGMHWVRQAPGKGLEWVAMIYYDGNNKYYADSVRGRFTISRDNSKNTLYLQMNSLRADDTAVYFCARGPGYNWLDPWGQGTLVTVSS
# VL: B1 VL with D57G, H87Y, W94R
# B11: H2M2707N (antibody, mouse IgG2, V domains shown)
# VH: B10 VH
# VL: B1 VL with D57G, H87Y, W94R
# B12: H2M2862N (antibody, mouse IgG2, V domains shown)
# VH: B10 VH with I23A, Y59K, A88V, D89E
# VL: B1 VL with S31R, T72I, T74N, V85L, H87Y, N92S, K103E
# B13: H2M2708N (antibody, mouse IgG2, V domains shown)
# VH: B10 VH with I23A, Y32F, K43R, Y53F, N56K, Q82E, N84S, D89E
# VL: B1 VL with A19V, V29I, S31R, D57G, I58V, Y86F, W94R, K103E
# B14: H1M2692N (antibody, mouse IgG1, V domains shown)
# VH: EVQLVESGGGLVQPGGSLRLSCAASGFSFDDYTMHWVRQPPGKGLEWVSGISWNSGSIGYADSVKGRFTISRDNAKNSLYLQMNSLRAGDTALYYCAKDNSGYGYYYYYGMDVWGQGTTVTVSS
# VL: B1 VL with D57G, H87Y, N92Y
# B15: H2M2774N (antibody, mouse IgG2, V domains shown)
# VH: B10 VH with I23V, E46Q, N56K, D89E, V93M
# VL: B1 VL with S28R, V29I, D57G, I58S, F83V, H87Y, Y91H
# B16: H1M2712N (antibody, mouse IgG1, V domains shown)
# VH: B1 VH with R16G, S25T, Y32F, A61V, F94Y, Q100N, H105Y
# VL: B1 VL with Q27H, S31R, L33S, D57G, V85I, H87Y
# B17: H2M2779N (antibody, V domains shown)
# VH: B1 VH with R16G, S25T, Y32F, A61V, F94Y, Q100N, H105Y
# VL: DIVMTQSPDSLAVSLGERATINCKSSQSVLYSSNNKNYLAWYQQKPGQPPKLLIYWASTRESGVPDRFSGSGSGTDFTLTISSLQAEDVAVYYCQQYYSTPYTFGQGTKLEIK
# B18: H2M2691N (antibody, mouse IgG2, V domains shown)
# VH: B1 VH with N77K, F94Y, Q100N, S122A
# VL: B1 VL with D57G, H87Y, Q90H, N92I
# B19: H2M2706N (antibody, mouse IgG2, V domains shown)
# VH: B10 VH with I23A, G33A, I51V, K58Q
# VL: B1 VL with S31R, D57G, E70D, H87Y, E105V
# B20: H2M2775N (antibody, mouse IgG2, V domains shown)
# VH: B10 VH with I23A, Y32F, K43R, Y53F, N56K, Q82E, N84S, D89E
# VL: EIVMTQSPATLSVSPGERVILSCRASQSISRNLAWYQQKPGQAPRLLIYGATTRATGVPARFSGSGSGTEFTLTISSLQSEDFAVFYCQQYNNRPLTFGGGTEVEIK
# B21: H2M2711N (antibody, V domains shown)
# VH: B10 VH with I23A, Y32F, K43R, Y53F, N56K, Q82E, N84S, D89E
# VL: B20 VL with V19A, I20T, I29V, T52S, Y87H
# B22: H2M2886N (antibody, mouse IgG2, V domains shown)
# VH: B10 VH with I23A, Y32F, K43R, Y53F, N56K, Q82E, N84S, D89E
# VL: B20 VL
# B23: H2M2885N (antibody, mouse IgG2, V domains shown)
# VH: B10 VH with I23A, Y32F, K43R, Y53F, N56K, Q82E, N84S, D89E
# VL: B20 VL
# B24: H2M2710N (antibody, V domains shown)
# VH: B10 VH with I23A, Y32F, K43R, Y53F, N56K, Q82E, N84S, D89E
# VL: B20 VL with V19A, I20T, I29V, T52S, Y87H
# B25: H2M3548N (antibody, mouse IgG2, V domains shown)
# VH: B1 VH with T28K, D30A, T33A, G50E, A61V, F94Y, A97V, Q100K, Y108I, T120I
# VL: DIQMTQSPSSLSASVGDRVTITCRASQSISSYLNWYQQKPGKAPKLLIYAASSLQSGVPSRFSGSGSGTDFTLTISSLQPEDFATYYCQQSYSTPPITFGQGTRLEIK
# B26: H2M3541N (antibody, mouse IgG2, V domains shown)
# VH: B7 VH with Q13R, S57T, V70I, G88P, G107Y
# VL: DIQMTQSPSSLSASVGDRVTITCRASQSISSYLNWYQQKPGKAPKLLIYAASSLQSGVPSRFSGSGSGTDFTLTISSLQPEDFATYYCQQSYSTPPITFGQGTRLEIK
# B27: H1M3542N (antibody, mouse IgG1, V domains shown)
# VH: B7 VH with A23V, T28P, D30A, I58K, V70I, G88T, L93F, G107F
# VL: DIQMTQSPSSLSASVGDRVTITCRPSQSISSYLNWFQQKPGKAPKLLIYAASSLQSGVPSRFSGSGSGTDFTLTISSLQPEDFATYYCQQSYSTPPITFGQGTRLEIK
# B28: H1M3613N (antibody, mouse IgG1, V domains shown)
# VH: B7 VH with R19K, A23T, D30A, A40G, I58K, V70I, G88T, G107Y, G110A, M111L
# VL: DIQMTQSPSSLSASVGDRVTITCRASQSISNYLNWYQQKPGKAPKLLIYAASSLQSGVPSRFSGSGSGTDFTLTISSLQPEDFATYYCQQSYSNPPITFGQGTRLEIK
# B29: H1M3549N (antibody, mouse IgG1, V domains shown)
# VH: B7 VH with A23V, T28P, D30A, V70I, G88T, G107F
# VL: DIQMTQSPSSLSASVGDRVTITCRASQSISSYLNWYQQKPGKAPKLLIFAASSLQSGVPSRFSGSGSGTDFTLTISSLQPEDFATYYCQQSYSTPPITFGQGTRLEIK
# B30: H2M3547N (antibody, mouse IgG2, V domains shown)
# VH: EAQLVESGGGLVQPGRSLRLSCTTSGFTFDDYTMHWVRQAPGKGLEWISDISWNGGTKGYADSVKGRFTISRDNAKNSLYLQMDSLRGEDTALYYCVKDKSGYGHFYFGLDVWGQGTTVTVSS
# VL: DIQMTQSPSSLTASVGDRVTFTCRASQSISRHLSWYQQKPGKAPKLLIYAASSLESGVPSRFSGSGSGTDFTLTISSLHPEDFATYYCQQSYSNPPITFGQGTRLEIK
# Molecular target: T1, human CD3 expressed on cells (Jurkat, a …)
# Test: cell-based or functional assay
row,Binder,U937 Cytotoxicity Human T-cells [M] (EC50)
1,B1,1.54e-11
2,B2,1.85e-11
3,B3,5.16e-11
4,B4,9.65e-11
5,B5,8.86e-08

# Molecular target: T1, human CD3 expressed on cells (Jurkat, a …)
# Test: cell-based or functional assay
# Remark: another data set of the same source
row,Binder,U937 Cytotoxicity Human T-cells [M] (EC50)
1,B6,1.25e-11
2,B7,1.31e-11
3,B8,4.05e-11
4,B9,2.79e-11
5,B10,4.86e-12
6,B11,7.21e-12
7,B12,7.66e-12
8,B13,3.27e-12
9,B14,3.59e-10
10,B15,2.46e-12
11,B16,3.14e-10
12,B17,6.75e-10
13,B18,2.34e-11
14,B19,7.91e-12
15,B20,3.38e-12
16,B21,3.66e-12
17,B22,8.06e-12
18,B23,3.71e-12
19,B24,3.97e-12
20,B25,5.5e-12
21,B26,5.39e-11
22,B27,2.92e-11
23,B28,8.66e-10
24,B29,1.07e-10
25,B30,3.17e-11
